Assay results published in the DeepSol protein solubility set.

Experiment: soluble on expression in E. coli; label from the status in PepcDB or PDB records

Row | Sequence | soluble on expression in E. coli
1 | ALEEVVRYLGPHNEIPLTLTRDSETGHFLLKHFLPILQQYHDTGNINETNPDSFPTDEERNKLLAHYGIAVNTDDRGELWIELEKCLQLLNMLNLFGLFQDAFEFEEPETDQDEEDPSHSKLPEN | soluble
2 | MSLSTKDVKELAIEQAKKFGGKLEVCPKVPIETKADLGIAYTPGVAAVSSAIHEKKERAYELTTKKNTVAVISDGSAVLGLGNIGPEAAMPVMEGKAALFKRFAGVDSIPLVLDTQDTEEIIQTVKFLAPTFGGINLEDISAPRCFEIEQRLIDELDIPVFHDDQHGTAIVVLAALYNSLKLINKKIEDIHVVINGGGSAGLSITRKFLAAGVKHIIIVDRAGILSETDTALPPHHAEIAKLTNREHRTGDLATALEGADVFVGVSAPGVLKPEWIQQMNEQPVIFAMANPVPEIFPDEALAAGAYIVGTGRSDFPNQINNVLAFPGIFRGALDARAKKITIEMQIAAAKGIAKLIPDNELTPTNIIPDPFQEGVAKVVAESVRNAVKETNEGHHHHHH | soluble
3 | MGVLDHVSEYFDCSHGSSKRHKSLQTVDVRVLIDCEGCERKVRRALEGMRGIRDVTIEPNAQKVTVVGYVEPNKVVARIIHRTGKRAELYPFVPYDVVAHPYASGVYDNRAPTGYVRNTEYDPHVSRLARASSTEVRYTTAFSDENASACVVM | soluble
4 | MSNSSAHSSFGTSNDSFSSVQSVILPPVGPFGQKKRTFEYIGVTLVVDKLKLAEWMNGIGKLFGSAELRDNVTNLHMQLVPVIDTLKKVSHLSSEKTKKEIMTLIEEYKTLVVVCENMLDRMEKSADFHSTDMLNDPVLEKQE | not soluble
5 | MGSDKIHHHHHHMKHAFLIIAHNEYPVLEVLLSMLDDERNDIYLHIDKRATELFQQIKKVKMQKAGFYLIENPIKVYWGDISQVQVEYLLFETALSHGPYAYYHLLSGTDLPIKSQDYIHAFFQQNAGKEFVGFWQDAAHQRDLERKVFRYYFFTKRLKDKEHLLHGITALIRNLILAVQKISHYRRKQTFEFKKGGNWISITENAVKYLLQYKEIVLNRMKYTLCADEIFIQTILWNSPFRERMHCTNNANTGSMREIDWEHGSPYIWQDHDYQTLINSNKIFARKFNSNQMGVVYKIQKLYLKQVPK | not soluble
6 | MDTLGLVESRSIAAGVNLADGMVKVAQVELVRAGTICSGRYFICLGGDRQAVQTAVSHAEQSGSALAGSYVISGVSPQVLAVLKKSVQPGTPGALGVVECRTVSAGIAAADAAVKRSGISLLRLVTGQGINGKSYFVFSGDVASVQEAADAAKTALGRHLIESVVIARPDASVVRALTSGVR | not soluble
7 | MGSDKIHHHHHHVSKIGIPRTLAYFIYFPLWKTFFEELGHEVVLSPATSKAILDRGVKEAVNDACIPIKLYHGHAAALAGKVDYIFCPRLVSVRSHGDFGTETFCPKFLGLPDMLRLAMDDLPEIIDVRVDLKQGKDGLWQLSQEIGKGLGNSREEIKRAFNRAREQQRQYNRLLYQEMLPLEALKIIEQKNPIPKKEKSNENYDLQVAVVGYPYLLYDAYINAGLLAILEKEKVKVYTQDIISDRKMNQQAKTLPKSTFWYFSNRVIYGALHFMQRPEIEGVIHLTAFACGPDSMVDRLLEIESRRRGNRPYLSIAVDEHTGEAGVRTRIEAFVDMLRYRRERK | not soluble
8 | FLDDINEDALPNDRTGYQDTLIWNKLFNYQKDAATGIINKLESYNGCILADSVGLGKTFTALAVIKYYELRNKSVLVLCPKKLADNWLNYSRNLKTNIFARDRFNYDVLCHTDLSRTSGESFGTPLNRINWGNYDLVIIDESHNFRNNDAYKDKETRYQKLMNKVIKEGVKTKVLMLSATPVNNRFNDLRNQLALAYEGDS | not soluble
9 | MGSDKIHHHHHHVDKFLYIAMSGAKQNLNSLSIRANNLANANTDGFKADLEQSRSMQAFGEGLPTRVFAMTENPQASFRHGPINSTARDLDVAVKGDGWIAVEDADGNEAYTRAGSLKFDETGLLTNSQGRPVMGDAGPIVLPLPIDKVEIAQDGTITVRPQGATAEVVEEVARIKLVNPGNQNLMRGDDGLFRMMNGTTAPQDETVALESRAVEGSNVNPVEEMVALIDIQRQFELQVKMMKTAEENDKASAQLVRIG | not soluble
10 | MLKGQRTWVFANKPAIIATAAVGGPFEANGRLAEDFDLLHEDLWLGEESYEKAHRVLMEEAAFQAMEKAGLEKEKVQFLIAGDLINQMTPTSFAARTLGMPYLGVFGACSTSMEGLALSAFITNYGGADYILTGASSHNAAVEKQFRYPTEYGGQKPPTAQWTVTGAGVAIVSPKGDGPRVTAATIGRVVDMGLADPFNMGGAMAPAAVDTIEAHLRDMQIDASYYDLIVTGDLGRIGRQVSLDLLRQHGIDIDEECYQDCGLLIYRDGQPVLSGASGAACSAVVVYGHLIKRMRRGELKRILAVATGALLSPLSFQQNETIPCIAHAVAIEYGGEA | not soluble
11 | MHDHMITFQLATHFLSRIALRLEYLFKTINEACNESHEVIHRFALKNIIEIVEIVEKPELKSRFIKELIRIEHVLKKANLLNHSELFDDLETQIHVLNHVPGRFSNKIHDDEFLKTLRQIHHPNTKECEFNSPHLVLWFDSDPLMRQKTISQWVSCLKDLEDTVKIYLSLLRGVTQYTPIRANNGFYQHSLSPKSLNHLILLRIDKKLKMIPKIQLGHHSLTIRLYELVTGQEIRDKTIEMEIAFCQI | not soluble
12 | MGSDKIHHHHHHVVVMSKVLLNIGCADVDKPGYINVDARKTKVTHLVSNAWDLDCFEENSVHEIYSRHMLEHLNPEYAKLALQKWFYILEPEGKLVVIVPDIEFHARQLLGVSRSSFGDQMEHAFAGFWGWREKERGGSDFDAHQWGYTVATLENEIGAVGFERIERVVEGVDSEPWHLQMTARKPMTSLCCPMDFRGPFP | not soluble
13 | GMPQPTVLLLARADLSPVGTEFTTGPIDAHDPFDSGRRTAFVDEQGIAAGIVEFGTALSVEAYPYTEMLVMHRGSVTLTSGTDSVTLSTGESAVIGRGTQVRIDAQPESLWAFCASTQASGPDKSGITALDRLALLTPSSPPDPSIMISPLPQCRSNNLFEDTASTLRIGVWDSTPYERISRPHKIHELMNLIEGRVVLSLENGSSLTVNTGDTVFVAQGAPCKWTSTGYVRKFYAVT | soluble
14 | MTEQYYKIALLFNANKVYDRQVVEGIGQYIQASQCMWDIFVEDEFIYHTDTINQLSIDGIIADFDDPKTVELLQHTLIPTIAVGGSYKQADFYPHFPYIATDNMALVEMALSHLQEKGLSQFAFYGLQVNTHKHWSIERRDAFVELMEKNHYPIYLYEGVQVHAQNWLEEQQKLIVWLKSLPSHTGIIAVTDARARHLLQACEYSKIAVPEELCVVGIDNEELIQYLSRMSLSSVEQGTREIGYQAAKLLHKLLNGQKVSHTPILIPPITVHSRNSTDYRSLTDPLVIQAMHYIRHRACHRIKVGQVLDHLETSRSNLEQRFKNEMNKTIHQVIHEEKISRAKNLLQQTDISIKEITEICGYPSIQYFYSVFKKEFEMTPKEFRLNC | not soluble
15 | MGSSHHHHHHGKTIFVIVPTNEEQVAFLEALAKQDELNFDWQNPPTEPGQPVVILIPSDMVEWFLEMLKAKGIPFTVYVEEGGSENLYFQGGGGGGRSSRHLCGLPTVRTVAATGWRYHRHGAPEKVLQYERYRVPFDRTSGQVVVKMLAAPVHRHDKNLIEGHGGPIAVPKACLPHVAGVEGVGVVEEVGSNAKLALKEGDMVWINNPSVGSWATHIVTDAENLDVVPCRADVDIEYLASLSLFHTAYHLTHDFVNIQPNDVVLQTGASSSIAQICQGYLRAKGAKLFQTMQLGRTEHAHLLAFFKLRGAFAVVPYNYARTNYMRRLLSDVPPPKLLLNHTCGGYASNLVNLLGDNGVCVTYGNTSHQPMQISNMDAIARGVQFKGFFLPSWIRRHTREARMRVHQNVVESMTITQGHGIFRAQRFKMDGDSAFAFSNAWDAPLASRKAVLRIVGEYGEWRRPRSDQAGWNIGRAVWEDMLQQMWESAGTTENPQSMKYYTPFDDIHSSFYDAKQSKELGHRDVFFRRPNAPRHNAAEQQQ | not soluble
16 | MGSDKIHHHHHHMDKELDLAVTCYGKVKPLKYDLVLLPWGATEPHNLHLPYLTDCILSHDIALDAAKLAKTHYGIRCMVMPYVTAGSQNPGQRELDFCIHYRYETQKAILSDLVASLYAQGYRKMVIINGHGGNTFKSMIRDLSLDYPDFLIASSEWFAFIPAKEYFDEPGDHADELETSVMMHYHPELVNLDEAGDGNYKKFASQMLNEKVAWIPRNWQNVSQDTGIGNPKKASAGKGKKYAEAVVAKYALLFEELVHKELY | not soluble
